US20240309360A1, “TRANS-ACTIVATORS AND METHODS AND USE THEREOF” (THE GOVERNING COUNCIL OF THE UNIVERSITY OF TORONTO, priority 2021, published 2024)

Legend:
[1] = tested on: EGFP reporter (7×TetO array, basal CMV promoter) in HEK293T reporter cell line; experiment: Arrayed recruitment assay, PYL1 fusions individually recruited to reporter via ABI1-dCas9 with ABA; assay type: cell-based, human; settings: PYL1 fusion, ABA 48 hours, flow cytometry
From the text: Treatment of cells with abscisic acid (ABA) induces an interaction between ABI1 and PYL1, thereby recruiting the potential transcriptional activator to a specific genomic locus defined by the guide RNA (gRNA). As a reporter, a HEK293T cell line that contains a stably integrated construct with a 7×TetO array and a basal CMV promoter driving the expression of EGFP was used (Gao et al., 2016). A monoclonal cell line that expresses ABI1-dCas9 and a single gRNA targeting TetO was generated by lentiviral infection.
Arrayed recruitment assays. Reporter cells stably co-expressing ABI-dCas9 and TetO gRNA were seeded either on 48-well or 96-well plates (Sarstedt) to reach 50-70% confluency on the day of transfection. 150 ng of each construct to be tested was transfected with polyethylenimine (PEI) at a ratio of 0.6 μl reagent. The day after transfection, recruitment was induced by treatment with ABA (100 μM). […] Inhibitors were dissolved in DMSO to a stock concentration of 10 mM. The final concentrations used were 100 nM for flavopiridol, 300 nM for JQ1, 1 μM for A-485, 2.5 μM for CX-4945 and 3 μM for AZ191. All inhibitors were a kind gift from the Structural Genomics Consortium (SGC). 48 hours after induction, cells were dissociated and resuspended in flow buffer using a liquid handing robot (TECAN) and analyzed by LSR Fortessa (BD). Cells were gated on high EBFP2 and RFP as a measure of gRNA and transfection control, respectively. Flow cytometry data was analyzed using FlowJo (v10).

[2] = tested on: NIH3T3 cells gene expression; experiment: RNA sequencing of NIH-3T3 cells with doxycycline-inducible EGFP-tagged constructs; assay type: cell-based, mouse; settings: GFP-tagged
From the text: The SRF/TCF pathway, which is regulated by MAP kinase signaling, regulates the expression of immediate-early genes (Gualdrini et al., 2016), whereas the actin-Rho signaling dependent SRF/MRTF pathway targets genes involved in cell motility and adhesion (Miralles et al., 2003). To test if SRF-C3orf62 can regulate target genes of both pathways, stable doxycycline-inducible NIH3T3 cell lines stably expressing SRF, C3orf62, SRF-C3orf62 and Nanoluc fused to GFP were generated. Transgene expression was induced with doxycycline for 24 hours and changes in gene expression were analyzed by RNA-seq. […] These signatures are consistent with the oncogenic nature of the SRF-C3orf62 fusion. […] In contrast, many well-characterized immediate-early target genes of SRF/TCF such as FOS, EGR1, or EGR2 were not affected by ectopic SRF-C3orf62 expression (FIG. 5H).
RNA sequencing and analysis. NIH-3T3 cells with stable integrations of SRF, C3orf62, SRF-C3orf62 or Nanoluc tagged at the C-terminus with EGFP were induced with 1 μg/mL doxycycline for 24 hours. […] Reads were aligned to the Gencode mouse primary assembly (GRCm39) with STAR aligner v2.7.8a. […] Changes in gene expression compared to cells expressing Nanoluc-EGFP were quantified using the edgeR package (Robinson et al., 2010).

[3] = tested on: serum response element reporter in NIH3T3 cells; experiment: SRF reporter assay (SRE-Firefly luciferase); assay type: cell-based, mouse; settings: NIH3T3 fibroblasts, 3×FLAG tagged constructs, no cofactors
Procedure: SRF functions together with either ternary complex factors (TCFs; e.g. ELK1) or myocardin-related transcription factors (MRTFs; e.g. MAL) to regulate target gene expression (Buchwalter et al., 2004; Olson and Nordheim, 2010). […] To test this further, the activity of different constructs was assayed in NIH3T3 fibroblasts using a luciferase-based serum response element reporter (Vartiainen et al., 2007).
SRF reporter assay. 30,000 NIH-3T3 cells on 24-well plates were transfected with 8 ng SRF reporter (p3DA.luc), 20 ng reference reporter (pcDNA3.1-Nanoluc-3×FLAG-V5) and 50 ng 3×FLAG tagged constructs (Addgene #87063). Transfection was carried out using Lipofectamine 3000 reagent (Thermo Fisher Scientific, L3000001) according to the manufacturer's protocols. Luciferase constructs were a kind gift from Dr. Maria Vartiainen (University of Helsinki). Cells were maintained in low-serum media (0.5% BCS) for 18 hours and stimulated for 7 hours (15% BCS), after which luciferase activity was measured. Firefly luciferase was normalized to Renilla luciferase activity using data from four independent transfections.

B1: RYBP: YAF2_RYBP domain of RYBP (protein, listed as Homo sapiens)
chain: IQSANATTKTSETNHTSRPRLKNVDRSTAQQLAVTVGNVTVIITDFKEKTRSSSTSSSTVTSSAGSEQQNQS
activation of the EGFP reporter when individually tested [1]: robustly activated the reporter

B2: SRF: Serum Response Factor (protein)
chain: MLPTQAGAAAALGRGSALGGSLNRTPTGRPGGGGGTRGANGGRVPGNGAGLGPGRLEREAAAAAATTPAPTAGALYSGSEGDSESGEEEELGAERRGLKRSLSEMEIGMVVGGPEASAAATGGYGPVSGAVSGAKPGKKTRGRVKIKMEFIDNKLRRYTTFSKRKTGIMKKAYELSTLTGTQVLLLVASETGHVYTFATRKLQPMITSETGKALIQTCLNSPDSPPRSDPTTDQRMSATGFEETDLTYQVSESDSSGETKDTLKPAFTVTNLPGTTSTIQTAPSTSTTMQVSSGPSFPITNYLAPVSASVSPSAVSSANGTVLKSTGSGPVSSGGLMQLPTSFTLMPGGAVAQQVPVQAIQVHQAPQQASPSRDSSTDLTQTSSSGTVTLPATIMTSSVPTTVGGHMMYPSPHAVMYAPTSGLGDGSLTVLNAFSQAPSTMQVSHSQVQEPGGVPQVFLTASSGTVQIPVSAVQLHQMAVIGQQAGSSSNLTELQVVNLDTAHSTKSE
modifications: left off: things letters cannot carry; small tags and cut ends
notes: Serum Response Factor
effects on the transcriptome compared to Nanoluc [2]: very limited or no effects on the transcriptome | activation of serum response element luciferase reporter [3]: did not activate the reporter

B3: C3orf62: full-length C3orf62 protein (protein)
chain: MHYIKTWSLLGEMSEKLRRCRKELTAAIDRAFEGVSYSQECTGQQRLELSAAPLSFSLPVHRLLCRRHPLAACSSAAPFAAVPCAPENENPAFATNHAPVNAKPHALCPERKPLTSKENVLMHSSILAPERESWRTAGEGENWRKENLRKDMERDLKADSNMPLNNSSQEVTKDLLDMIDHTSIRTIEELAGKIEFENELNHMCGHCQDSPFKEEAWALLMDKSPQKATDADPGSLKQAFDDHNIVETVLDLEEDYNVMTSFKYQIE
modifications: left off: things letters cannot carry; small tags and cut ends
notes: full-length C3orf62 protein
effects on the transcriptome compared to Nanoluc [2]: very limited or no effects on the transcriptome | activation of serum response element luciferase reporter [3]: did not activate the reporter

B4: C3orf62-Cterm: C-terminal fragment of C3orf62 fused to SRF in the fusion (protein)
chain: AAVPCAPENENPAFATNHAPVNAKPHALCPERKPLTSKENVLMHSSILAPERESWRTAGEGENWRKENLRKDMERDLKADSNMPLNNSSQEVTKDLLDMIDHTSIRTIEELAGKIEFENELNHMCGHCQDSPFKEEAWALLMDKSPQKATDADPGSLKQAFDDHNIVETVLDLEEDYNVMTSFKYQIE
modifications: left off: things letters cannot carry; small tags and cut ends
notes: C-terminal fragment of C3orf62 fused to SRF in the fusion
activation of the EGFP reporter when individually tested [1]: strongly activated the GFP reporter

B5: CBX6: CBX-C domain of CBX6 (protein, listed as Homo sapiens)
chain: GASSEPEAGDWRPEMSPCSNVVVTDVTSNLLTVTIKEFCNPEDFEKVAAGVAGAAGGGGSIGASK
activation of the EGFP reporter when individually tested [1]: activated the reporter weakly

B6: SPDYC: Spy1/RINGO family protein (protein, listed as Homo sapiens)
chain: MLWAIPELGSPCPISISYEMSDSQDPTTSPVVTTQVELGGCSRQGGGNGFLRFRQHQEVQAFLSLLEDSFVQEFLSKDPCFQISDKYLLAMVLVYFQRAHLKLSEYTHSSLFLALYLANDMEEDLEGPKCEIFPWALGKDWCLRVGKFLHQRDKLWARMGFRAVVSRQCCEEVMAKEPFHWAWTRDRRPHHGGVQRVCPQVPVRLPRGPGLSPPHCSPCGLPQHCSSHLLKPVSSKCPSLTSECHRPPSQNYLSRVKNAWGGDFLIVLPPQMQLEPGTYSLRIFPKPPARPGH
activation of the EGFP reporter when individually tested [1]: inactive in the recruitment assay
